Target: rd23b_human RAD23B (UniProt P54727)
Sequence (P54727 whole entry): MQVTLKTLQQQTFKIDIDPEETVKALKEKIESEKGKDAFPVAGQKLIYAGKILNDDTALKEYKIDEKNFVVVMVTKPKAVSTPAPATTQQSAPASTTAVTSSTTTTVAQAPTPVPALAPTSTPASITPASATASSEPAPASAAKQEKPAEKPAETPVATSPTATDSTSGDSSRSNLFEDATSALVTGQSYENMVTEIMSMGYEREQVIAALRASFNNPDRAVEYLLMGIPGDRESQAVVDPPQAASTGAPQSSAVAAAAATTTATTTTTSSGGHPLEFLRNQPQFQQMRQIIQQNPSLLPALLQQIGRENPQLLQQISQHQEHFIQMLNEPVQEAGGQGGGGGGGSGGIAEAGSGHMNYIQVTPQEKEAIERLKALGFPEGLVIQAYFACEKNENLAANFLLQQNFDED

Sequence of Paired box protein Pax-3 (Mus musculus), P24610 K475R (P24610 whole entry K475R): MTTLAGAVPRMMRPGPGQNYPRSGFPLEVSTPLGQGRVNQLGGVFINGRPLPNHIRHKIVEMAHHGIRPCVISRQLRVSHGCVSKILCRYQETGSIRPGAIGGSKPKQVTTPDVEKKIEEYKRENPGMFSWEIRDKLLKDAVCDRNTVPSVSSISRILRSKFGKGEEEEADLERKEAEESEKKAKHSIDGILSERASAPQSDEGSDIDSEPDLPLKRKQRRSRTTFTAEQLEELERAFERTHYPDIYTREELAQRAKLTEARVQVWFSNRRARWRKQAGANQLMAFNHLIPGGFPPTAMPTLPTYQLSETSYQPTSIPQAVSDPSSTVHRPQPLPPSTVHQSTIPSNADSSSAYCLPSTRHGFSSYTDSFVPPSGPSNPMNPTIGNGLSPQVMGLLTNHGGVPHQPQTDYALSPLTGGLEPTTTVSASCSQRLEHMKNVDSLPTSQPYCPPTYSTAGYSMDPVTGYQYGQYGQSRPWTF
Sequence of Paired box protein Pax-3 (Mus musculus), P24610 K437R (P24610 whole entry K437R): as the sequence (P24610 whole entry K475R) above, with K437R, R475K counted along it

| Substance | effect of a mutation on the interaction |
| --- | --- |
| Paired box protein Pax-3 (Mus musculus), P24610 K437R | decreasing interaction |
| Paired box protein Pax-3 (Mus musculus), P24610 K475R | decreasing interaction |
